Measurements reported in patent JP2016106147A (dated 2016).
Values joined by “and” are separate entries in the source; they are usually repeats but may differ in a detail not shown here. Equal entries are not always repeated.

B1: マウスモノクローナル抗MMP9抗体(AB0041) (antibody, mouse IgG2b, V domains shown)
VH: QVQLKESGPGLVAPSQSLSITCTVSGFSLLSYGVHWVRQPPGKGLEWLGVIWTGGTTNYNSALMSRLSISKDDSKSQVFLKMNSLQTDDTAIYYCARYYYGMDYWGQGTSVTVSS
VL: DIVMTQSHKFMSTSVGDRVSITCKASQDVRNTVAWYQQKTGQSPKLLIYSSSYRNTGVPDRFTGSGSGTDFTFTISSVQAEDLAVYFCQQHYITPYTFGGGTKLEIK
notes: also called AB0041; AB0041抗体
B2: マウス抗体AB0046 (antibody, V domains shown)
VH: QVQLQQPGSVLVRPGASVKLSCTASGYTFTSYWMNWVKQRPGQGLEWIGEIYPISGRTNYNEKFKVKATLTVDTSSSTAYMDLNSLTSEDSAVYYCARSRANWDDYWGQGTTLTVSS
VL: DIQMTQTTSSLSASLGDRVTISCSASQGISNYLNWYQQKPDGTFKLLIYYTSILHSGVPSRFSGSGSGTDYSLTISNLEPEDIATYYCQQYGWLPRTFGGGTKLEIKR
notes: Mouse IgG1/kappa anti-mouse MMP9 antibody; also called AB0046; AB0046抗体
B3: ヒト化変異体抗MMP9抗体AB0045(ヒト化、改変IgG4(S241P)) (antibody, V domains shown)
VH: QVQLQESGPGLVKPSETLSLTCTVSGFSLLSYGVHWVRQPPGKGLEWLGVIWTGGTTNYNSALMSRFTISKDDSKNTVYLKMNSLKTEDTAIYYCARYYYGMDYWGQGTLVTVSS
VL: DIQMTQSPSSLSASVGDRVTITCKASQDVRNTVAWYQQKPGKAPKLLIYSSSYRNTGVPDRFSGSGSGTDFTLTISSLQAEDVAVYYCQQHYITPYTFGGGTKVEIKR
notes: also called AB0045; AB0045抗体

Key:
ヒトMMP9 [1] = biological target: T1, ヒトMMP9 (human, UniProt P14780 20-707, limits assumed); assay: SPR
T1 construct: also called human MMP9; ゼラチナーゼ−B

カニクイザルMMP9 = biological target: T2, カニクイザルMMP9 (cynomolgus monkey, UniProt A0A2K5UU71 20-706); assay: ELISA
T2 construct: also called cynomolgus MMP9; 組換えカニクイザルMMP9

ラットMMP9 = biological target: T3, ラットMMP9 (rat, UniProt P50282 20-708, limits assumed); assay: ELISA
T3 construct: also called rat MMP9; 組換えラットMMP9

ヒトMMP9 [2] = biological target: T1, ヒトMMP9; assay: cell-based or functional assay
マウスMMP9 [3] = biological target: T4, マウスMMP9 (mouse, UniProt P41245 20-730, limits assumed); assay: binding test (Table 2, not shown)
T4 construct: The immunogen for AB0046 was a pro/catalytic domain fragment of mouse MMP9; also called mouse MMP9

マウスMMP9 [4] = biological target: T4, マウスMMP9; assay: ELISA
マウスMMP9 [5] = biological target: T4, マウスMMP9; assay: cell-based or functional assay
ヒトMMP9 [6] = biological target: T1, ヒトMMP9; assay: ELISA
ヒトMMP9 [7] = biological target: T1, ヒトMMP9; assay: direct binding assay and SPR

T1 sequence (P14780 20-707 Q279R/R574P limits assumed): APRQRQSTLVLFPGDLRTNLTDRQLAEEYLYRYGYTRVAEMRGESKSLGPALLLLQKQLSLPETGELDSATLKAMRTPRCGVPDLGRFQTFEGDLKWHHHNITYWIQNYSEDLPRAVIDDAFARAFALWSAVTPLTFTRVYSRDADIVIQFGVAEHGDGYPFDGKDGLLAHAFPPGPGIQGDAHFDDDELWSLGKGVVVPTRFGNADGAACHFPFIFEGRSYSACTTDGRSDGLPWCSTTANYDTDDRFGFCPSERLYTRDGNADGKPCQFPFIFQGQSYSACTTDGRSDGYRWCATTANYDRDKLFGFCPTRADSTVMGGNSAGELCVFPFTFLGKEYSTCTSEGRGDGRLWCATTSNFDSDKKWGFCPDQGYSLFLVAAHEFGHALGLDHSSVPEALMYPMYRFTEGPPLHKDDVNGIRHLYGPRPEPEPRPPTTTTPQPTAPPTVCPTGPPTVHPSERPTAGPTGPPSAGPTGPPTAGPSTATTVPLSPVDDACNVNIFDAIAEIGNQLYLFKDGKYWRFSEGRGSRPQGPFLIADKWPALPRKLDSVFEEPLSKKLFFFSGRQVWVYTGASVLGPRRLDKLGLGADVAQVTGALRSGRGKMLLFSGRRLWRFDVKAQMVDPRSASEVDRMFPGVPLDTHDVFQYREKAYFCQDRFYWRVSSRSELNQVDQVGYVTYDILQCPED
T4 sequence (P41245 20-730 limits assumed): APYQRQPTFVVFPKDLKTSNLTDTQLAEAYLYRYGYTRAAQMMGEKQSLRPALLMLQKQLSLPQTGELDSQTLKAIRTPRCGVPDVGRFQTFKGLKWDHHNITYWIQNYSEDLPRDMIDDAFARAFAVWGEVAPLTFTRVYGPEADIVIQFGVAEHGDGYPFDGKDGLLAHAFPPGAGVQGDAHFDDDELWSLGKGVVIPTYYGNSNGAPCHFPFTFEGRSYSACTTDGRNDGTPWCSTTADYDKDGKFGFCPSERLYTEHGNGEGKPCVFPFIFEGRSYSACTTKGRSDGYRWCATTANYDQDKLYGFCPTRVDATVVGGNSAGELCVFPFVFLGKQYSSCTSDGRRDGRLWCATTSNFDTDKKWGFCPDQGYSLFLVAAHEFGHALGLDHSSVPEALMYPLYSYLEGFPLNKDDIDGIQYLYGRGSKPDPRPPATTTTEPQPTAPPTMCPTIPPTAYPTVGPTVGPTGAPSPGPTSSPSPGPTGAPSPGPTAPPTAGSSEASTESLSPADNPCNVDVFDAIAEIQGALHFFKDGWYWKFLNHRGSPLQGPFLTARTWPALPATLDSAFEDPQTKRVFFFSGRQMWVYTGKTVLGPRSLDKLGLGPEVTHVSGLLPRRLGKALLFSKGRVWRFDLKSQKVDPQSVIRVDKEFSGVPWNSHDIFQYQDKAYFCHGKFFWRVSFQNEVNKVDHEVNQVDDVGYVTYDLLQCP
T2 sequence (A0A2K5UU71 entry or part of it): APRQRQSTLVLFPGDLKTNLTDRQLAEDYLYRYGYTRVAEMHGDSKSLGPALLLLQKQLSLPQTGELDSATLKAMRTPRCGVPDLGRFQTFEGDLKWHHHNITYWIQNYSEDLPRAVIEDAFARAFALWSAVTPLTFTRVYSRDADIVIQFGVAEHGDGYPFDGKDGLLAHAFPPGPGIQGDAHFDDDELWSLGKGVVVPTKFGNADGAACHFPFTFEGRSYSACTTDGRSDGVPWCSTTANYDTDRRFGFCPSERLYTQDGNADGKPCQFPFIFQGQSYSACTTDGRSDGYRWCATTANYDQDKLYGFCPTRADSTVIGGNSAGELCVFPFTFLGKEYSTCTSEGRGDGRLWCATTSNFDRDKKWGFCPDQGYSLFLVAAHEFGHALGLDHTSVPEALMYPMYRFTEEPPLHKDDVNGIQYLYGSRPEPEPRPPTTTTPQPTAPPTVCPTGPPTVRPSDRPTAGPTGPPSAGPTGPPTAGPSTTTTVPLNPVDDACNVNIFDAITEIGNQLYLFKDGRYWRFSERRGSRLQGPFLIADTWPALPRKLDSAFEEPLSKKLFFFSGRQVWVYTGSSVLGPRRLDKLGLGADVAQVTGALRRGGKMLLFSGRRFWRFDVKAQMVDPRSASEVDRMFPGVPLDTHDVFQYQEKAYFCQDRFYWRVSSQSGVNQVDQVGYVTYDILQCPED
T3 sequence (P50282 20-708 limits assumed): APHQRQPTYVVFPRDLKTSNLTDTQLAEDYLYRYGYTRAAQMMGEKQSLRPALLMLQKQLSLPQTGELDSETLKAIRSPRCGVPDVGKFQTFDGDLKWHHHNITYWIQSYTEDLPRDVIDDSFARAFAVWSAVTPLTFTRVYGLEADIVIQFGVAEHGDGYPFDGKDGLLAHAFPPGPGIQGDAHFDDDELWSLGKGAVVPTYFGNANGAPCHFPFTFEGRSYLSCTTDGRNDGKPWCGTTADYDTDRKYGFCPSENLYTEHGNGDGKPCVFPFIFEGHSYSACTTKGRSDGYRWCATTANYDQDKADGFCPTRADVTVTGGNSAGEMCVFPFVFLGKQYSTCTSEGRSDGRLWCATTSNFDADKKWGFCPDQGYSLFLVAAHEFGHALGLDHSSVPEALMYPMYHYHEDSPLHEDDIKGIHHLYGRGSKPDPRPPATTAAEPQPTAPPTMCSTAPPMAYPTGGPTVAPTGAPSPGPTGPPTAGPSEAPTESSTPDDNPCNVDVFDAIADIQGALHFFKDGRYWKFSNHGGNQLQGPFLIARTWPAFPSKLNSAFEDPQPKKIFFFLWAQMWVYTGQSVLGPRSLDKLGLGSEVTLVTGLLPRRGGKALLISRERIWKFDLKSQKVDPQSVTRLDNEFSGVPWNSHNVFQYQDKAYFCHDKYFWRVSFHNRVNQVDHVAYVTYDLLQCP

Row | Binder | Kd (ヒトMMP9 [1]) [pM] | Kd (カニクイザルMMP9) [pM] | Kd (ラットMMP9) [pM] | IC50, MMP9-mediated cleavage of fluorogenic peptide substrate Mca-PLGL-Dpa-AR-NH2 (ヒトMMP9 [2]) [nM] | binding result (マウスMMP9 [3]) | Kd (マウスMMP9 [4]) [pM] | IC50, MMP9-mediated cleavage of fluorogenic peptide substrate Mca-PLGL-Dpa-AR-NH2 (マウスMMP9 [5]) [nM] | Kd (ヒトMMP9 [6]) | Kd (ヒトMMP9 [7]) [pM]
1 | B1 | 0.4 | < 400 | < 400 | 0.569 | no binding | – | – | – | –
2 | B2 | – | – | – | – | – | 218 | 0.352 | – | –
3 | B3 | 8.8 | < 400 | < 400 | 0.691 | – | – | – | < 400 pM and 168 pM | ~1
